Measurements as given in patent US7666989B2 (priority 2003, dated 2010).
Values joined by “and” are separate entries in the source; they are usually repeats but may differ in a detail not shown here. Equal values may be shown once. Read-outs that look alike come from different tables or passages of the source. Marks after values point to notes of the source that are not given here.

Columns and labels:
[1] = tested on: MDA-MB-435 (human breast cancer cell); assay: MTT cytotoxicity, MDA-MB-435; format: cell-based; settings: 4 days
Excerpt: (§1) Reagents: RPMI1640 is from GIBCO; MTT is from Bebco. Fetal bovine serum is purchased from Hangzhou SiJiQing Bioengineering Material Co. Ltd. (P. R. China).
(§2) Cell lines: COLO 205 (human colon cancer cell), NCI-H460 (human lung cancer cell), RPMI 8226 (human multiple myeloma cell), U251 (human brain glioma cell) are from ATCC, USA. HL-60 (human promyelocytic leukemia cell), MDA-MB-231, MDA-MB-435 (human breast cancer cell), SCLC (human small-cell lung cancer cell), H125 (human lung cancer cell) and PC-3 (human […] cancer cell).
(§3) The well-grown tumor cells were collected to prepare a cell suspension (1×10^4/ml) with RPMI 1640 medium containing 10% fetal bovine serum. The cell suspension was inoculated into a 96-well plate, 100 μL (containing 1000 tumor cells) per well. The plate was cultured in a 5% CO2 incubator at 37° C. for 24 hours, followed by addition of medicament.
(§4) A blank control and a positive control using 5-fluorouracil or adriamycin are employed in the experiment. […]
(§5) The supernatant was discarded. […] After gently shaking, the OD values were measured by a BIORAD 550 enzyme analyzer, with the detection wavelength being 540 nm and the reference wavelength being 450 nm.
(§6) Dose-response curves were generated by plotting with the cell inhibition rates and different concentrations of medicament, and the half inhibitory concentrations (IC50) were calculated.

[2] = tested on: PC-3 (human pancreas cancer cell); assay: MTT cytotoxicity, PC-3; format: cell-based; settings: 4 days
Excerpt: as §1, §2, §3, §4, §5, §6

[3] = tested on: RPMI 8226 (human multiple myeloma cell); assay: MTT cytotoxicity, RPMI 8226; format: cell-based; settings: 4 days
Excerpt: as §1, §2, §3, §4, §5, §6

[4] = tested on: human brain glioma U251; settings: U251 xenograft, ten injections; for Body Weight (g) Start / Tumor volume (mm^3) Start: baseline; for Inhibition rate (%): by tumor weight
Excerpt: In this example, the animals used were BALB/c-nu nude mice, 6-8 weeks old. For each experiment, all animals were of the same sex.
Tumor cell lines: human brain glioma U251, human lung cancer cell line NCI-H460, human colon cancer cell line COLO205 were inoculated from in vitro culture into nude mice subcutaneously, the tumors were subcultured and kept.
Experimental Procedures: well-grown nude mice carrying well-grown tumors were selected and sacrificed by disjointing neck vertebra. The tumors were removed aseptically and were cut into pieces having a diameter of 2-3 mm by a scalpel. The pieces were inoculated into the axilla of nude mice subcutaneously by a needle. […] The length and width of tumors were measured by a vernier caliper. The animals were then grouped based their tumor sizes. Each group included seven to eight animals.
The length, width of the tumor and the body weight of the mice were measured twice per week. The tumor volume (TV) and relative tumor volume (RTV) were calculated. A graph indicating the changes of tumor size was plotted. At the end of this experiment, the tumors were taken out and weighed after the mice were sacrificed, and the inhibition rates of the medicament on tumor growth were calculated.
The formula for calculating tumor volume (TV) is: length×width^2÷2.
The formula for calculating relative tumor volume (RTV) is: Vt/Vo (wherein Vo is the TV value measured when the administration is started, Vt is the TV value measured after that).
T-test was used to determine the statistical difference of tumor weights, tumor volumes and RTV etc. between different groups of animal. The index used for evaluating the anti-tumor activity is the relative tumor growth rate T/C (%), the formula for which is: […]
(§7) The evaluation standard for efficacy:
(§8) T/C (%)>60 is ineffective;
T/C (%)≦60 and P<0.05 after statistical analysis is effective.
The Carmustine (Renmin Pharmaceuticals, Amino Acid Inc. Tianjin, P. R. China) was used as the positive control, 40 mg/kg, administered by intraperitoneal injection for once. CPT was given to four groups at the doses of 0.6 mg/kg, 1.7 mg/kg, 5.0 mg/kg, 15.0 mg/kg respectively, administered by intraperitoneal injection. The treatment included ten injections.

[5] = tested on: human lung cancer NCI-H460; assay: Growth of human lung cancer NCI-H460 xenograft in nude mice; format: in vivo, BALB/c-nu nude mice; settings: ten injections; for Body Weight (g) Start / Tumor volume (mm^3) Start: baseline; for Inhibition rate (%): by tumor weight
Experimental: The animals were then grouped based their tumor sizes. Each group included seven to eight animals.
as §7, §8
One additional injection was given at 80 mg/kg two weeks later. […] The treatment contained a total of ten injections.

[6] = Side or toxic effects in treated tumor-bearing nude mice; format: in vivo, BALB/c-nu nude mice; settings: treated nude mice versus negative control; body weight and viability
Excerpt: No substantial difference in the parameters concerning the living status of mice, such as body weight and viability of the treated groups were observed compared with those of the negative control group, except that the sizes of tumor in the treated mice were smaller. […] Therefore, CPT may be used as an effective and safe medicament for treating cancers. CPT is both theoretically and industrially important and has a bright future in the market.

[7] = CPT 1.7 mg/kg i.p. once per day
[8] = CPT 5.0 mg/kg i.p. once per day

B1: CPT: human recombinant circularly permuted TRAIL (CPT), which consists of 166 amino acid residues; SEQ ID No:2 (protein)
chain: TLSSPNSKNEKALGRKINSWESSRSGHSFLSNLHLRNGELVIHEKGFYYIYSQTYFRFQEEIKENTKNDKQMVQYIYKYTSYPDPILLMKSARNSCWSKDAEYGLYSIYQGGIFELKENDRIFVSVTNEHLIDMDHEASFFGAFLVGGGGGGVAAHITGTRGRSNT
modifications: Synthetically generated peptide
[1]
  IC50: 0.008 ± 0.002 mg/L
[2]
  IC50: 0.067 ± 0.002 mg/L
[3]
  IC50: 0.824 ± 0.093 mg/L
[4]; CPT 0.6 mg/kg i.p.
  Body Weight (g) End: 21.0 ± 1.4 g
  RTV: 2.77 ± 1.97
  T/C (%): 82.9%
  Tumor volume (mm^3) End: 961 ± 582 mm^3
  Tumor weight: 0.89 ± 0.49 g
  Body Weight (g) Start: 21.0 ± 0.8 g
  Tumor volume (mm^3) Start: 141 ± 40 mm^3
  Inhibition rate (%): 30.5%
[4]; CPT 1.7 mg/kg i.p.
  Body Weight (g) End: 21.5 ± 2.0 g
  RTV: 2.12 ± 1.29
  T/C (%): 63.5%
  Tumor volume (mm^3) End: 588 ± 215** mm^3
  Tumor weight: 0.71 ± 0.22 g
  Body Weight (g) Start: 21.6 ± 1.2 g
  Tumor volume (mm^3) Start: 131 ± 34 mm^3
  Inhibition rate (%): 44.5%
[4]; CPT 5.0 mg/kg i.p.
  Body Weight (g) End: 21.9 ± 3.2 g
  RTV: 1.32 ± 1.24
  T/C (%): 39.5%
  Tumor volume (mm^3) End: 510 ± 333** mm^3
  Tumor weight: 0.45 ± 0.26 g
  Body Weight (g) Start: 22.0 ± 1.1 g
  Tumor volume (mm^3) Start: 133 ± 57 mm^3
  Inhibition rate (%): 64.8%
[4]; CPT 15 mg/kg i.p.
  Body Weight (g) End: 21.1 ± 1.7 g
  RTV: 0.71 ± 0.57
  Tumor volume (mm^3) End: 261 ± 238** mm^3
  Tumor weight: 0.16 ± 0.15 g
  Body Weight (g) Start: 21.6 ± 1.1 g
  Tumor volume (mm^3) Start: 148 ± 58 mm^3
  Inhibition rate (%): 87.5% and 87.7%
[5]; [7]
  Body Weight (g) End: 19.8 ± 1.6 g
  RTV: 2.27 ± 1.13
  T/C (%): 38.0%
  Tumor volume (mm^3) End: 706 ± 170* mm^3
  Tumor weight: 0.77 ± 0.19 g
  Body Weight (g) Start: 20.1 ± 1.9 g
  Tumor volume (mm^3) Start: 200 ± 103 mm^3
  Inhibition rate (%): 52.2%
[5]; [8]
  Body Weight (g) End: 18.5 ± 2.5 g
  RTV: 1.49 ± 0.76
  Tumor volume (mm^3) End: 469 ± 359** mm^3
  Tumor weight: 0.41 ± 0.28 g
  Body Weight (g) Start: 20.4 ± 1.9 g
  Tumor volume (mm^3) Start: 187 ± 51 mm^3
  Inhibition rate (%): 74.5%
[5]; CPT 15 mg/kg i.p. once per day
  Body Weight (g) End: 21.1 ± 1.7 g
  RTV: 0.79 ± 0.25
  Tumor volume (mm^3) End: 189 ± 102** mm^3
  Tumor weight: 0.21 ± 0.10 g
  Body Weight (g) Start: 20.9 ± 1.1 g
  Tumor volume (mm^3) Start: 192 ± 63 mm^3
  Inhibition rate (%): 87.0% and 88.8%
[6]
  side or toxic effects on animals: did not exhibit any apparent side or toxic effects
